Assay results taken from patent US20240043489A1, “Cytokine Prodrugs Comprising a Cleavable Linker” (Trutino Biosciences Inc., priority 2020, published 2024).
Values joined by “and” are separate entries in the source; they are usually repeats but may differ in a detail not shown here. Identical values can stand only once. Like-named read-outs stand apart in the source and are kept apart here.

How the values were obtained:
Collagen type I = Collagen type I (Homo sapiens, UniProt P02452+P08123); details: binds to Collagen type I; Note 1 of Table 2; cited from earlier work
Chain of Collagen type I (P02452 162-1218 limits assumed): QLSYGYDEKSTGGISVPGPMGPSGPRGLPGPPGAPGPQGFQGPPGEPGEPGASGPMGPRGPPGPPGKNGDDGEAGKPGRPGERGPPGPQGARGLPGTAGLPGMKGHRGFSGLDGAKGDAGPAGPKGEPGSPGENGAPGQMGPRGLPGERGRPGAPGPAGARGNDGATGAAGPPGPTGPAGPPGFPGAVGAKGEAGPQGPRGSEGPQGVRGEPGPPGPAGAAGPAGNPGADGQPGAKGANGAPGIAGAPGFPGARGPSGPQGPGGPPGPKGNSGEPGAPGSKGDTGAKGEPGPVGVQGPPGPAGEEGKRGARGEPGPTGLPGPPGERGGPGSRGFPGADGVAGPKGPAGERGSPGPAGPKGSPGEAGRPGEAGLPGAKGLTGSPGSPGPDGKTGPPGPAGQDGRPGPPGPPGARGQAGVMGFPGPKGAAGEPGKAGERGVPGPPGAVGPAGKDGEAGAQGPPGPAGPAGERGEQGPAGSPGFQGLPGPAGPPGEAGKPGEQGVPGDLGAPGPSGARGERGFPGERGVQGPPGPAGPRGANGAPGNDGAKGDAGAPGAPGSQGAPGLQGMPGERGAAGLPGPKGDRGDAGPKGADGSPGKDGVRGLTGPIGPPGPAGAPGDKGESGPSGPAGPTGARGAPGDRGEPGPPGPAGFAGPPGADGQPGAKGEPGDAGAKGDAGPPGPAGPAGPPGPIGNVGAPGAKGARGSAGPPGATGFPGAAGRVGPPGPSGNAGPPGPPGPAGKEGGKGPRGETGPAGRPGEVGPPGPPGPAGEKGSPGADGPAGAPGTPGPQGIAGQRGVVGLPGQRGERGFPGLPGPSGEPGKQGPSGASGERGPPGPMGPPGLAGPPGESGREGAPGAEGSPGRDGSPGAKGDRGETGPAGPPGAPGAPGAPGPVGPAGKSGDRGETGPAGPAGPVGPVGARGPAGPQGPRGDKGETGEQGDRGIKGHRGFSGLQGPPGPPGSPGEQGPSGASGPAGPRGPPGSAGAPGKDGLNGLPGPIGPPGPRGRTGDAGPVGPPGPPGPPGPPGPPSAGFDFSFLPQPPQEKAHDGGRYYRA
Chain of Collagen type I (P08123 80-1119 limits assumed): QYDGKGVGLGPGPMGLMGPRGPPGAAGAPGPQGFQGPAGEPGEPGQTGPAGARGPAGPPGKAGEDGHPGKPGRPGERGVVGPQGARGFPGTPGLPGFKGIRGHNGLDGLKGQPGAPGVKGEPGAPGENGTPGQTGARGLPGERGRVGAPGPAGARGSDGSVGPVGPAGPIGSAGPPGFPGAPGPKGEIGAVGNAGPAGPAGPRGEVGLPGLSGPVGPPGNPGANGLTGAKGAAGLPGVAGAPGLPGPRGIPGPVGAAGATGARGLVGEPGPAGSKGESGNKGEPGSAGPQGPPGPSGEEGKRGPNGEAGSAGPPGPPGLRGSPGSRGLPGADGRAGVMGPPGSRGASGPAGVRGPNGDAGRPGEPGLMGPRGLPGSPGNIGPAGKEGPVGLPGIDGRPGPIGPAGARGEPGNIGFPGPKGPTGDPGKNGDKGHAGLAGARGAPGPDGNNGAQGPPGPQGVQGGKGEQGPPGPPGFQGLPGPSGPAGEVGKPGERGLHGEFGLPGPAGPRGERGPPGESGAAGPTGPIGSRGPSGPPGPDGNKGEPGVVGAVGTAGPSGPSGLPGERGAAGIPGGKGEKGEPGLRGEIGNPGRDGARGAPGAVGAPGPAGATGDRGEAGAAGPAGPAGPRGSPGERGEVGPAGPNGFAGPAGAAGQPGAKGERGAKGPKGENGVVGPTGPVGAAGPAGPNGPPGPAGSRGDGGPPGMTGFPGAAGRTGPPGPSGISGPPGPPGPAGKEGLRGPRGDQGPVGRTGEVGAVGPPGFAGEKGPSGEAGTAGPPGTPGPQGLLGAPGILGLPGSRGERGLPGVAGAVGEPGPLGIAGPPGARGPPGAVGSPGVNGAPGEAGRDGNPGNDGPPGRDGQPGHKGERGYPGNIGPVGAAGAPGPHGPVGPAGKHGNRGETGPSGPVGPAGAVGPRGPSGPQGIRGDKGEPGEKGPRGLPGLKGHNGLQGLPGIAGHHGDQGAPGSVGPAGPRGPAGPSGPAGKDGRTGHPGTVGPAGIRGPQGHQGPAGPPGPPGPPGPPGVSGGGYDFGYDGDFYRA

heparin [1] = details: Note 1, cited from earlier work
HEK-Blue™ IL-2 cells = assay: HEK-Blue IL2 reporter assay (SEAP, OD630); type: cell-based; details: Table 5C
Experimental: Recombinant MMP9 and/or MMP2 (R&D Systems) was first activated with p-aminophenylmercuric acetate and this activated protease or equivalent amount of activating solution without the protease was used to digest or mock digest the fusion protein for 1 hr, 2 hr, 4 hr and overnight (18-22 hr) at 37 C. Cleavage assays are set up in TCNB buffer: 50 mM Tris, 10 mM CaCl2), 150 mM NaCl, 0.05% Brij-35 (w/v), pH 7.5. Digested protein was aliquoted and stored at −80° C. prior to testing. Aliquots of digests were subsequently analyzed by SDS-PAGE followed by Western blotting to evaluate the extent of cleavage. Digests were also assessed in functional assays such as CTLL-2 proliferation and HEK-Blue Interleukin reporter assays. As shown in FIGS. 2A-E, essentially complete cleavage by MMP9 protease of the fusion proteins with functional site is seen after overnight incubation. In contrast, proteins containing a scrambled MMP cleavage site are not cut (FIG. 2E). HEK-Blue™ IL-2 cells are specifically designed to monitor the activation of the JAK-STAT pathway induced by IL-2. Indeed, stimulation with human or murine IL-2 triggers the JAK/STAT5 pathway and induces secreted embryonic alkaline phosphatase (SEAP) production. SEAP can be readily monitored when using QUANTI-Blue™, a SEAP detection medium. These cells respond to human and murine IL-2. For the HEK Blue assay, untreated and digested samples are titrated and added to 50 000 HEK Blue cells per well in 200 ul medium in a 96-well plate and incubated at 37C in 5% CO2 for 20-24 hr. The following day, levels of SEAP are measured by adding 20 uL of cell supernatant to QuantiBlue reagent, followed by 1-3 h incubation at 37C and reading absorbance at 630 nm. FIGS. 3C-J, 3Q-Y and Table 5B-5C show results obtained from IL2 fusion proteins tested in HEK Blue IL2 assay.

B16F10 melanoma = assay: In vivo efficacy of retention linker IL-2 drugs in B16F10 syngeneic model (Example 17); parameters: species or system mice
Experimental: (§1) In a first efficacy study, C57BL/6 mice were subcutaneously inoculated with B16F10 melanoma cells and when the average tumor volume reached on average 70-90 mm^3, animals were randomized into 5 groups based on tumor volumes (n=6 mice per treatment group). Mice were dosed intravenously every 3 days (Q3D) for a total of 5 doses according to following design:
as §1, with “second” for “first”, “study in the same model,” for “study,”
On Day 20, mice received an additional dose of drug, animals were sacrificed 24 hrs later and tissues and blood (processed to serum) were collected and stored at −80C for further testing. […] This is most likely due to the higher levels of both circulating drugs in serum and resident drug in TME, which can exert prolonged anti-tumor activity even after an extended dosing holiday.

fibronectin = fibronectin (Homo sapiens, UniProt P02751); assay: IL-2 fusion protein plate binding assay to fibronectin
Chain of fibronectin (P02751 32-2477, species assumed): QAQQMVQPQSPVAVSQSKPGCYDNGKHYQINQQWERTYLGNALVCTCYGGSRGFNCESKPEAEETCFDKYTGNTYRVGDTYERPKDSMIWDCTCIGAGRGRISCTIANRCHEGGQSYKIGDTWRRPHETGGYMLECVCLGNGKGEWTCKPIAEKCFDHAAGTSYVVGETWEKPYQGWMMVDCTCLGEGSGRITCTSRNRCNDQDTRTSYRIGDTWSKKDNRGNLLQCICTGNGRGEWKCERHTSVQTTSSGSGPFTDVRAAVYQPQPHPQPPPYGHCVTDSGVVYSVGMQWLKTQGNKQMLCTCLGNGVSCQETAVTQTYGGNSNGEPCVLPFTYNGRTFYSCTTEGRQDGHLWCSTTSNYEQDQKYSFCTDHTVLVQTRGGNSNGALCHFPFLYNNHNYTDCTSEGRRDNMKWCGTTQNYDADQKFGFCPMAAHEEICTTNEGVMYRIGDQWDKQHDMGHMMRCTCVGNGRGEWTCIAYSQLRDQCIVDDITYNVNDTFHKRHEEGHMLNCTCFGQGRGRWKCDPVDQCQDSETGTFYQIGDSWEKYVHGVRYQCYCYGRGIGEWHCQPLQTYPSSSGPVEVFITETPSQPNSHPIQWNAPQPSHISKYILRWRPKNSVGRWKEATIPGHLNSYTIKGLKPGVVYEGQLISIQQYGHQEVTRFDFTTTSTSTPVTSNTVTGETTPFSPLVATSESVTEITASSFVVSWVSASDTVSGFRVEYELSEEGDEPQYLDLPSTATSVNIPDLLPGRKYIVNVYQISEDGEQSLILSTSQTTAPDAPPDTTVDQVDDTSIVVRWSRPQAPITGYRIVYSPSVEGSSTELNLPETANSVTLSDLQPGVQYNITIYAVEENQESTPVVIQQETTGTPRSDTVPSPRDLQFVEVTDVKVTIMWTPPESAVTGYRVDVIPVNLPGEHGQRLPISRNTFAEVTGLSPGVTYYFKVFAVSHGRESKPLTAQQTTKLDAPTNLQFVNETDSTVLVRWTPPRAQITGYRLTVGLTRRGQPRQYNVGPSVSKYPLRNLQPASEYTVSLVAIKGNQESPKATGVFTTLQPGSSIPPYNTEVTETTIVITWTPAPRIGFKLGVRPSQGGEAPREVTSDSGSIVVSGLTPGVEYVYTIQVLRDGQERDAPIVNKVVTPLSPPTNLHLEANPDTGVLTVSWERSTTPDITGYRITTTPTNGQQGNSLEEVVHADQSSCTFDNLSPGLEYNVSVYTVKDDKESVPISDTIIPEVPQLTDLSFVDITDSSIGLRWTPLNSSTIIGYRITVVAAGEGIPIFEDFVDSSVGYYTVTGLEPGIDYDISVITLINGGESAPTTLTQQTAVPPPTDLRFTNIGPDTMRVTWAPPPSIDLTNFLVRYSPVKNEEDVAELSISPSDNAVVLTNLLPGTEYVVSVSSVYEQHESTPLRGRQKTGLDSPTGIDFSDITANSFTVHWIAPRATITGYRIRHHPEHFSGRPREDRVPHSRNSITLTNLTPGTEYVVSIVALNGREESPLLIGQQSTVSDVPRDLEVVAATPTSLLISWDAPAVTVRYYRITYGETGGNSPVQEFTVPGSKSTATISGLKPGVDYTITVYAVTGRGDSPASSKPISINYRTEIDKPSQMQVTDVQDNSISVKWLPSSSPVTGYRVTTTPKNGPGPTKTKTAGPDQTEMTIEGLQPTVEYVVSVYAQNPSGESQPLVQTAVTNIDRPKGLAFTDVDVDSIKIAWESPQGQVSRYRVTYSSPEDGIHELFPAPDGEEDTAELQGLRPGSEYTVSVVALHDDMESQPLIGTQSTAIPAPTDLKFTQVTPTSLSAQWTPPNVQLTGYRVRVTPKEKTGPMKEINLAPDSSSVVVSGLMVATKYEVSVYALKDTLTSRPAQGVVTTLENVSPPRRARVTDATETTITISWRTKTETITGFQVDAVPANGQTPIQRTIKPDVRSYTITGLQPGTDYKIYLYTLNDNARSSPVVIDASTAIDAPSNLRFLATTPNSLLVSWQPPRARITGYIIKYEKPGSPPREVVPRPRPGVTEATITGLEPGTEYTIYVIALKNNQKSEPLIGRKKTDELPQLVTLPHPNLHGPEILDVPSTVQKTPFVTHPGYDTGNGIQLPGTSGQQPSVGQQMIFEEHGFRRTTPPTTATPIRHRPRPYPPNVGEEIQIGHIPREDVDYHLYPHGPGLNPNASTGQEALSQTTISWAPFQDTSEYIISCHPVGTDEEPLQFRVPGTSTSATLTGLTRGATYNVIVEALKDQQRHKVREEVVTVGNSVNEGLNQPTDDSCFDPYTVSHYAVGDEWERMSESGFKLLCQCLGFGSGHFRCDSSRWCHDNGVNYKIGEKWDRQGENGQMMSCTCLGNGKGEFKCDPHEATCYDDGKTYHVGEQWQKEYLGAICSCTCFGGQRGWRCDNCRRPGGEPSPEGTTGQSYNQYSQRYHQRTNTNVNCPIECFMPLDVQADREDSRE
Experimental: A similar plate-based assay was developed to interrogate binding of IL-2 fusion variants to fibronectin. 96-well plates were coated with 4 ug/mL of fibronectin (Sigma) or control BSA for 18-22 h at room temperature on shaker (350 rpm). After washing, wells are blocked with protein-free blocking buffer (Pierce) for 90 min, then fusion proteins are titrated in blocking buffer-0.1% Tween 20 pH 7.5 and/or pH 6 and added for 1 hr at room temperature with shaking. After washing, an anti-mouse IL-2 biotin-labelled detection antibody (JES6-5H4, ThermoFisher) is added and binding is detected using Ultra Streptavidin HRP (ThermoFisher). The plate was developed by adding the chromogenic tetramethylbenzidine substrate (Ultra TMB, ThermoFisher). The reaction is stopped by addition of 0.5M H2SO4 and the absorbance is read at 450-650 nm.

[2] = Full-length drug levels in serum by ELISA; type: in vivo, mice; details: Construct Y 20 mg/kg Day 21 (8 days after last IV) vs Construct B 20 mg/kg Day 17 (4 days after)
Experimental: We developed an ELISA assay to detect and quantify fusion proteins comprising IL-2 and IL-2Rα moieties. Wells of a 96-well plate are coated overnight with 100 uL of a rat anti-mouse IL-2 monoclonal antibody (JES6-1A12; ThermoFisher) at […] in PBS. After washing, wells are blocked with TBS/0.05% Tween 20/1% BSA, then fusion proteins and/or unknown biological samples are added for 1 hr at room temperature. After washing, an anti-mouse IL-2Rα biotin-labelled detection antibody (BAF2438, R&D systems) is added and binding is detected using Ultra Strepavidin HRP (ThermoFisher). The ELISA plate was developed by adding the chromogenic tetramethylbenzidine substrate (Ultra TMB, ThermoFisher). The reaction is stopped by addition of 0.5M H2SO4 and the absorbance is read at 450-650 nm.
Additional serum samples collected at Day 17 (Construct B 20 mg/kg) and Day 21 (Construct Y 20 mg/kg), 4 days and 8 days respectively after the last IV injection, were assayed for full-length IL-2 fusion drug.

heparin [3] = assay: IL-2 fusion protein plate binding assay to Heparin-BSA conjugate; details: pH 6 vs pH 7.5, plate assay
Experimental: 96-well plates were coated with 25 ug/mL of Heparin-BSA conjugate (provided by Dr. Mueller, Boerhinger Ingelheim) or control BSA for 18-22 h at room temperature on shaker (350 rpm). After washing, wells are blocked with PBS-0.05% Tween 20/1% BSA for 90 min, then fusion proteins are titrated in 1% BSA/PBS-0.05% Tween 20 pH 7.5 and/or pH 6 and added for 2 hr at room temperature with shaking. After washing, an anti-mouse IL-2 biotin-labelled detection antibody (JES6-5H4, ThermoFisher) is added and binding is detected using Ultra Strepavidin HIRP (ThermoFisher). The plate was developed by adding the chromogenic tetramethylbenzidine substrate (Ultra TMB, ThermoFisher). The reaction is stopped by addition of 0.5M H2SO4 and the absorbance is read at 450-650 nm.

[4] = cleaved with MMP9, read-out: +MMP EC50

## 195 (CPKESCNLFVLKD) [Construct 195]
Collagen type I
  Kd: 681 nM

## 197 (HVWMQAPGGGK) [Construct 197]
Collagen type I
  Kd: 61000 nM

## 642 (KHAHLKKQVSDHIAVY) [Construct 642]
Heparin [1]
  affinity of binding to heparin at low pH: binds to heparin at low pH (high affinity)

## 648 (KVEHRVKKRPPTWRHNVRAKYT) [Construct 648]
Heparin [1]
  binding to heparin, pH dependence: binds to heparin at low pH

## 643 (TTEPSEEHNHHK) [Construct 643]
Heparin [1]
  affinity of binding to heparin at low pH: binds to heparin at low pH (low affinity)

## 650 (KKRPPTWRHNV) [Construct 650]
Heparin [1]
  binding to heparin, pH dependence: binds to heparin at low pH

## 192 (LRELHLNNN) [Construct 192]
Collagen type I
  Kd: 170 nM

## 646 (TTEPSEEHNHHKHHDK) [Construct 646]
Heparin [1]
  affinity of binding to heparin at low pH: binds to heparin at low pH (lower affinity)

## 649 (GGKVEHRVKKRPPTWRHNVRAKYT) [Construct 649]
Heparin [1]
  binding to heparin, pH dependence: binds to heparin at low pH

## 191 (MIVIELGTNPLKSSGIENGAFQGMKK) [Construct 191]
Collagen type I
  Kd: 394 nM

## 193 (WREPSFCALS) [Construct 193]
Collagen type I
  Kd: 100000 nM

## 644 (KHAHL) [Construct 644]
Heparin [1]
  affinity of binding to heparin at low pH: binds to heparin at low pH (lower affinity)

## 194 (TKKTLRT) [Construct 194]
Collagen type I
  Kd: ≤ 100000 nM

## 196 (WREPSFCALS) [Construct 196]
Collagen type I
  Kd: 100000 nM

## 189 (RRANAALKAGELYKSILYGC) [Construct 189]
Collagen type I
  Kd: 860 nM

## 645 (TTEPSEEHNHHK) [Construct 645]
Heparin [1]
  affinity of binding to heparin at low pH: binds to heparin at low pH (lower affinity)

## 647 (HKGQHR) [Construct 647]
Heparin [1]
  affinity of binding to heparin at low pH: binds to heparin at low pH (lower affinity)

B1: Construct AA: SEQ ID NO 811: m IL2-SGG-FHRRIKA-MMPcs1-2x(G4S)-mIL2Ra(1-215)-mu IgG1 Fc (protein)
chain: APTSSSTSSSTAEAQQQQQQQQQQQQHLEQLLMDLQELLSRMENYRNLKLPRMLTFKFYLPKQATELKDLQCLEDELGPLRHVLDLTQSKSFQLEDAENFISNIRVTVVKLKGSDNTFECQFDDESATVVDFLRRWIAFCQSIISTSPQSGGFHRRIKAGPLGVRGGGGGSGGGGSELCLYDPPEVPNATFKALSYKNGTILNCECKRGFRRLKELVYMRCLGNSWSSNCQCTSNSHDKSRKQVTAQLEHQKEQQTTTDMQKPTQSMHQENLTGHCREPPPWKHEDSKRIYHFVEGQSVHYECIPGYKALQRGPAISICKMKCGKTGWTQPQLTCVDEREHHRFLASEESQGSRNSSPESETSCPITTTDFPQPTETTAMTETFVLTMEYKGCKPCICTVPEVSSVFIFPPKPKDVLTITLTPKVTCVVVDISKDDPEVQFSWFVDDVEVHTAQTQPREEQFNSTFRSVSELPIMHQDWLNGKEFKCRVNSAAFPAPIEKTISKTKGRPKAPQVYTIPPPKEQMAKDKVSLTCMITDFFPEDITVEWQWNGQPAENYKNTQPIMDTDGSYFVYSKLNVQKSNWEAGNTFTCSVLHEGLHNHHTEKSLSHSPGK
HEK-Blue™ IL-2 cells; [4]
  EC50: 0.0109 nM
HEK-Blue™ IL-2 cells; uncleaved, read-out: −MMP EC50
  EC50: 0.442 nM

B2: Construct EE: SEQ ID NO 815: m IL2-SGG-GGWSHW-MMPcs1-2x(G4S)-mIL2Ra(1-215)-mu IgG1 Fc (protein)
chain: APTSSSTSSSTAEAQQQQQQQQQQQQHLEQLLMDLQELLSRMENYRNLKLPRMLTFKFYLPKQATELKDLQCLEDELGPLRHVLDLTQSKSFQLEDAENFISNIRVTVVKLKGSDNTFECQFDDESATVVDFLRRWIAFCQSIISTSPQSGGGGWSHWGPLGVRGGGGGSGGGGSELCLYDPPEVPNATFKALSYKNGTILNCECKRGFRRLKELVYMRCLGNSWSSNCQCTSNSHDKSRKQVTAQLEHQKEQQTTTDMQKPTQSMHQENLTGHCREPPPWKHEDSKRIYHFVEGQSVHYECIPGYKALQRGPAISICKMKCGKTGWTQPQLTCVDEREHHRFLASEESQGSRNSSPESETSCPITTTDFPQPTETTAMTETFVLTMEYKGCKPCICTVPEVSSVFIFPPKPKDVLTITLTPKVTCVVVDISKDDPEVQFSWFVDDVEVHTAQTQPREEQFNSTFRSVSELPIMHQDWLNGKEFKCRVNSAAFPAPIEKTISKTKGRPKAPQVYTIPPPKEQMAKDKVSLTCMITDFFPEDITVEWQWNGQPAENYKNTQPIMDTDGSYFVYSKLNVQKSNWEAGNTFTCSVLHEGLHNHHTEKSLSHSPGK
B16F10 melanoma; 10 mg/kg IV Q3D, 5 doses
  TGI (%) D 15: 39.32%
B16F10 melanoma; 10 mg/kg, 7 days following the fifth dose
  TGI (%) D 20: 37.61%
fibronectin; pH 6
  fibronectin binding at acidic pH: preferentially binds fibronectin at acidic pH
fibronectin; pH 7.5 (neutral)
  fibronectin binding at pH 7.5: no binding is observed
HEK-Blue™ IL-2 cells; [4]
  EC50: 0.0066 nM
HEK-Blue™ IL-2 cells; uncleaved, read-out: −MMP EC50
  EC50: 1.18 nM

B3: Construct Y: SEQ ID NO 809: m IL2(C140S)-VRIQRKKEKMKET-MMPcs1-2x(G4S)-mIL2Ra (1-215)-mu IgG1 Fc (protein)
chain: APTSSSTSSSTAEAQQQQQQQQQQQQHLEQLLMDLQELLSRMENYRNLKLPRMLTFKFYLPKQATELKDLQCLEDELGPLRHVLDLTQSKSFQLEDAENFISNIRVTVVKLKGSDNTFECQFDDESATVVDFLRRWIAFSQSIISTSPQVRIQRKKEKMKETGPLGVRGGGGGSGGGGSELCLYDPPEVPNATFKALSYKNGTILNCECKRGFRRLKELVYMRCLGNSWSSNCQCTSNSHDKSRKQVTAQLEHQKEQQTTTDMQKPTQSMHQENLTGHCREPPPWKHEDSKRIYHFVEGQSVHYECIPGYKALQRGPAISICKMKCGKTGWTQPQLTCVDEREHHRFLASEESQGSRNSSPESETSCPITTTDFPQPTETTAMTETFVLTMEYKIEGRMDGCKPCICTVPEVSSVFIFPPKPKDVLTITLTPKVTCVVVDISKDDPEVQFSWFVDDVEVHTAQTQPREEQFNSTFRSVSELPIMHQDWLNGKEFKCRVNSAAFPAPIEKTISKTKGRPKAPQVYTIPPPKEQMAKDKVSLTCMITDFFPEDITVEWQWNGQPAENYKNTQPIMDTDGSYFVYSKLNVQKSNWEAGNTFTCSVLHEGLHNHHTEKSLSHSPGK
[2]
  drug levels in circulation relative to Construct B: more than 10 fold
B16F10 melanoma; 20 mg/kg IV Q3D, 5 doses
  TGI (%) D 13: 77% and 76.59%
HEK-Blue™ IL-2 cells; [4]
  EC50: 0.0109 nM
HEK-Blue™ IL-2 cells; uncleaved, read-out: −MMP EC50
  EC50: 1.23 nM
Heparin [3]
  heparin binding (qualitative): bind heparin in dose-dependent manner and with higher affinity than Construct B
